From the supplement of paper PMC9732359
± gives the uncertainty stated by the source.

Assay: protein stability index of a GFP-peptide fusion (yeast GPS) (PSI 1-4); higher = more stable; sorted into four equal gates, so the index is relative within each strain
Procedure, shortened: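 Peptides tiling yeast proteins in 17-residue segments were fused downstream of GFP, with Cherry expressed from the same plasmid. As a pooled library in yeast, mid-log cultures grown in leucine-free medium were sorted into four equal gates by GFP/Cherry fluorescence ratio. Gate plasmids were PCR-amplified and Illumina-sequenced, and barcodes linked reads to strains. Each peptide received a protein stability index equal to the sum of each gate's read frequency times its gate number.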

Sequence | protein stability index (doa10∆) | protein stability index (pdr5∆) | protein stability index (san1∆) | protein stability index (ubr1∆)
PHLFVNGDLTVSLCAKN [SSN2] | 1.95 ± 0.079 | 2.12 ± 0.081 | 2.25 ± 0.18 | 1.87 ± 0.074
PHQSPDATRVFVNGVWH [RPB2] | 2.84 ± 0.061 | 3.05 ± 0.056 | 2.98 ± 0.047 | 3.15 ± 0.045
PHTPVTRKGYIPSSKYA [YLR018C/POM34] | 3.15 ± 0.065 | 3.18 ± 0.089 | 2.96 ± 0.082 | 3.07 ± 0.052
PIAASTDLPIETAAMAS [RPN1] | 1.48 ± 0.041 | 1.64 ± 0.052 | 1.53 ± 0.06 | 1.71 ± 0.058
PIDAGLNEAPFPEENII [MCD1] | 3.01 ± 0.069 | 2.88 ± 0.054 | 3.06 ± 0.033 | 2.96 ± 0.041
PIDNNIIFASTKLGFTF [SNU114] | 2.63 ± 0.05 | 2.52 ± 0.047 | 2.38 ± 0.054 | 2.67 ± 0.035
PIFSFGKQEENGDEGDD [YOR098C/NUP1] | 3.63 ± 0.14 | 3.65 ± 0.17 | 3.55 ± 0.096 | 3.32 ± 0.14
PIIATYGNRAEQFLETD [SRP68] | 2.09 ± 0.09 | 2.48 ± 0.063 | 2.26 ± 0.14 | 2.72 ± 0.084
PINLQNGEEDEVALFSQ [YLR335W/NUP2] | 3.11 ± 0.14 | 3.39 ± 0.17 | 3.22 ± 0.054 | 3.17 ± 0.18
PIPIPAFADRLGQYVQA [PRE10] | 2.21 ± 0.08 | 1.95 ± 0.062 | 1.75 ± 0.11 | 2.07 ± 0.097
PIPSSETKADGILLETI [RRP6] | 2.86 ± 0.1 | 2.36 ± 0.065 | 2.12 ± 0.1 | 2.53 ± 0.052
PISKHSKQAIYTRAAAS [RPS25B] | 2.64 ± 0.067 | 2.63 ± 0.054 | 2.43 ± 0.061 | 2.83 ± 0.051
PITASTSRVFAKIISKA [YML103C/NUP188] |  | 3.02 ± 0.14 | 2.53 ± 0.21 | 
PIVIIFRALGIIPDGEI [RPB2] | 1.92 ± 0.048 | 1.79 ± 0.056 | 2.05 ± 0.063 | 2.41 ± 0.039
PKAMTDTDNECVAAWGV [HRT1] | 3.23 ± 0.12 | 3.48 ± 0.17 | 3.03 ± 0.13 | 3.05 ± 0.042
PKEPRLKSQMDTSKALL [SKI6] |  | 3.17 ± 0.18 |  | 
PKSSPLKKNNYNSFPHS [SIR4] | 2.79 ± 0.099 | 3.08 ± 0.076 | 3.07 ± 0.046 | 3.06 ± 0.039
PKYAKQKDKSDTYKRFK [ISW2] | 3.12 ± 0.084 | 3.1 ± 0.1 | 3.13 ± 0.11 | 3.23 ± 0.079
PKYRDNLATWYHSAGGR [SSN3] | 2.95 ± 0.066 | 3.28 ± 0.08 | 3.1 ± 0.059 | 2.99 ± 0.059
PLASEESLTNSNMFDNS [YGL100W/SEH1] | 3.38 ± 0.18 | 3.02 ± 0.19 | 3.07 ± 0.12 | 3.29 ± 0.086
PLIQNSMRTIMKANPAL [PRP8] | 2.4 ± 0.08 | 2.58 ± 0.22 | 1.56 ± 0.3 | 2.25 ± 0.17

Sequence | protein stability index (doa10∆) | protein stability index (pdr5∆) | protein stability index (san1∆) | protein stability index (ubr1∆)
PLKYAPHLPFSKSENPV [SWI3] | 2.81 ± 0.076 | 2.95 ± 0.078 | 2.66 ± 0.091 | 2.93 ± 0.074
PLNVLQDQYKEGIKVVD [SNF2] |  | 2.46 ± 0.11 | 1.78 ± 0.092 | 2.62 ± 0.093
PLPHRVQKSTKTFSYKR [RPL20A] | 2.39 ± 0.058 | 2.93 ± 0.051 | 2.63 ± 0.057 | 2.38 ± 0.043
PLPVETPRDRRKSVFAP [SSN2] | 2.67 ± 0.069 | 2.31 ± 0.077 | 2.99 ± 0.099 | 2.86 ± 0.049
PLQNNLPELWALLNFVL [SNF2] | 2.69 ± 0.051 | 2.64 ± 0.045 | 2.56 ± 0.057 | 2.46 ± 0.037
PLQVARCTKIIKGNGES [RPT1] | 2.96 ± 0.16 | 2.96 ± 0.081 | 2.72 ± 0.09 | 2.01 ± 0.14
PLRLRLYDNFVSKFYDK [RPN9] | 3.17 ± 0.068 | 3.18 ± 0.068 | 3.17 ± 0.064 | 2.96 ± 0.079
PLSNEVFEISENNSDSN [SWI1] | 3 ± 0.063 | 3.04 ± 0.068 | 2.84 ± 0.084 | 2.98 ± 0.058
PMPIITFLSEWGMEPLE [RPB2] | 2.7 ± 0.06 | 2.96 ± 0.09 | 2.51 ± 0.08 | 2.76 ± 0.071
PMYKELWINYIKELLNI [POP4] | 1.67 ± 0.19 | 1.08 ± 0.11 |  | 
PNADDIRDSIPQMDSFD [DIS3] | 2.79 ± 0.078 | 2.86 ± 0.089 | 3.14 ± 0.09 | 3.06 ± 0.052
PNGTKKAYVRLTADYDA [RPL25] |  |  | 3.07 ± 0.16 | 3.34 ± 0.15
PNHIPSVNPSNKPIKRM [SWP82] | 2.87 ± 0.087 | 2.96 ± 0.057 | 2.75 ± 0.081 | 3.02 ± 0.042
PNIRELGVKNLGLCCLL [YCG1] | 2.91 ± 0.25 |  | 1.87 ± 0.21 | 1.46 ± 0.061
PNIRTMSGTTKRLNGKR [SSN2] | 2.24 ± 0.23 | 2.74 ± 0.22 | 2.39 ± 0.17 | 3.46 ± 0.11
PNLLFSMCGFEVRILPR [PRP8] | 2.41 ± 0.051 | 1.9 ± 0.047 | 2.25 ± 0.055 | 2.27 ± 0.046
PNVFDKDSYVRIANIEQ [YDL088C/ASM4] | 3 ± 0.093 | 3.09 ± 0.047 | 3.04 ± 0.07 | 3.22 ± 0.051
PPETKLPYPTYWSDKKA [SNF5] | 2.91 ± 0.085 | 2.82 ± 0.062 | 3.15 ± 0.056 | 2.86 ± 0.053
PPKHTELLLTTLSVSHG [SSN2] | 1.79 ± 0.038 | 1.8 ± 0.038 | 1.55 ± 0.07 | 1.61 ± 0.027
PPPGLDELETKAEKKVE [PRP8] | 3.02 ± 0.06 | 3.21 ± 0.048 | 3.13 ± 0.05 | 3.08 ± 0.049
PPQLANQQQPPQDILSK [SNF11] | 2.26 ± 0.055 | 2.87 ± 0.069 | 2.41 ± 0.065 | 2.69 ± 0.052
